Data reported in US20090281024A1 (RAPTOR PHARMACEUTICALS, published 2009).

B17: MegaRAP1 d3 (designed binder)
chain: LDRLRRVSHQGYTTEAKFEEPRVIDLWDLAQSANLTDKELEAFREELKYFKAKIEAHNHYQKQLEIAHEELRHAESVGDGERVSRSREKHALLEGRTKELGYTVKKHLQDLSGRISRAR
notes: range 201-319 (mature RAP numbering); d3 of the variant selected on LRP2 CR89; also called RAPv2A d3; RAP v2A; not shown: N-terminal hexahistidine and S-peptide tags of pET30(+)a

Legend:
LRP1 CR3-5 = molecular target: T1, LRP1 CR3-5 (human); assay: solid-phase assay, coated CR protein
T1 construct: range 852-973; also called L1 CR3-5; LRP1 CR3-S [sic]
Method: (§1) Wells were washed with TBSTC and bound ligands detected with polyclonal anti-RAP (BP41/42, 1:1,000, BioMarin). Excess primary antibody was removed and wells washed before incubation with the secondary antibody, HRP-conjugated goat anti rabbit IgG (Bio-Rad). After washing, TMB substrate solutions (Bio-Rad) were added to detect HRP. Color development was stopped with 1N HCl. Absorption at 450 nm was measured with a microplate spectrophotometer (Molecular Devices). Data were plotted and Kd values derived by non-linear regression with the assumption of single-site binding (GraphPad Prism).
Next, the binding of RAP d3 and MegaRAP1 d3 proteins to LRP1 CR3-5 and LRP2 CR89 was assessed. […] In all cases, 10 mM EGTA prevented binding of both RAP d3 and MegaRAP1 d3 to CR proteins. Since calcium was the only divalent metal ion present in the binding buffer, this observation is consistent with both RAP d3 and MegaRAP1 d3 binding to calcium-loaded CR pairs. […] Therefore, wild-type RAP d3 and MegaRAP1 d3 have inverted binding preferences for these two receptor fragments.

MegaRAP1 d3 [1] = molecular target: B17; assay: solid-phase binding assay: LRP2 CR89 variant coated on the plate, d3 ligand in solution, anti-RAP detection, absorbance
Method: as §1, with “RAP ligands were then incubated with the immobilized receptor at a range of concentrations for 2 hours in the above blocking buffer supplemented with 0.05% Tween-20 at room temperature. Control wells contained no added ligand. As an additional control, to determine whether the absence of calcium affected binding, 10 mM EGTA was included in the incubation medium for some samples. Wells” for “Wells”
One premise of this work was that amino acids at A, C, A′ and C′ within the calcium-binding loops of a CR pair were key determinants of binding affinity for RAP and would be similarly important for binding of RAP variants. […] Binding to both RAP d3 and MegaRAP1 d3 were measured for each LRP2 CR89 mutant by solid-phase assay. […]

MegaRAP1 d3 [2] = molecular target: B17; assay: solid-phase binding assay: CR protein coated on the plate, d3 ligand at 80 nM, anti-RAP detection, blank-corrected absorbance
Method: (§2) RAP d3, MegaRAP1 d3, VRAP2 d3, MatRAP1d3 and MatRAP2 d3 were each incubated at 80 nM concentrations with LRP1 CR3-5, LRP6 CR12, LRP6 CR23, LRP6 CR1-3, LRP2 CR89, LRP2 CR2728, LRP2 CR3031, LRP2 CR3435, LRP2 CR34-36, VLDLR CR78, VLDLR CR6-8, MAT CR12, MAT CR23 and MAT CR34. Samples were tested twice, in duplicate, and values combined. Means and standard deviations were then calculated. Blank values obtained from wells incubated in the absence of ligand were used to correct absorbance data.
(§3) Solid phase binding assays—Purified, refolded CR protein (1 μg) was bound to Nunc Maxisorp™ 96-well plates in TBS pH 8 supplemented with 5 mM CaCl₂ (TBSC) overnight at 4° C. Wells were washed with TBSC and then blocked with TBSC containing 2% bovine serum albumin (BSA). RAP ligands were then incubated with the immobilized receptor at a range of concentrations for 2 hours in the above blocking buffer supplemented with 0.05% Tween-20 at room temperature. Control wells contained no added ligand. As an additional control, to determine whether the absence of calcium affected binding, 10 mM EGTA was included in the incubation medium for some samples. Wells were washed with TBSTC and bound ligands detected with polyclonal anti-RAP (BP41/42, 1:1,000, BioMarin). Excess primary antibody was removed and wells washed before incubation with the secondary antibody, HRP-conjugated goat anti rabbit IgG (Bio-Rad). After washing, TMB substrate solutions (Bio-Rad) were added to detect HRP. Color development was stopped with 1N HCl. Absorption at 450 nm was measured with a microplate spectrophotometer (Molecular Devices). Data were plotted and Kd values derived by non-linear regression with the assumption of single-site binding (GraphPad Prism).
(§4) The apparent dissociation constant for binding of VRAP1d3 to VLDLR CR78 was determined to be […]. We then compared binding of RAP d3, MegaRAP1 d3, VRAP1d3, MatRAP1d3 and MatRAP2 d3, each at a concentration of 80 nM, to fourteen CR pairs or triplets, including LRP1 CR3-5, LRP2 CR89, LRP2 CR2728, LRP2 CR3031, LRP2 CR34-36, LRP2 CR3536, VLDLR CR78, VLDLR CR6-8, LRP6 CR1-3, LRP6 CR12, LRP6 CR23, MAT CR12, MAT CR23 and MAT CR34 (FIG. 7).

[3] = molecular target: T2, RAP d3 (wild-type third domain of the receptor-associated protein) (human, UniProt P30533 235-353); assay: as above
T2 construct: range 201-319 (mature RAP numbering); Expressed in E. coli from pET30(+)a; also called wild-type RAP d3; not shown: N-terminal hexahistidine and S-peptide tags of pET30(+)a
T2 sequence (looked up): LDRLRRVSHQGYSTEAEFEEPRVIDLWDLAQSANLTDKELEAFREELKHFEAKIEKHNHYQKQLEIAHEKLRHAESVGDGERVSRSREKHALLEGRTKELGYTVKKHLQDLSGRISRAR
Method: as §2, §3, §4

T1 sequence (Q07954 852-973): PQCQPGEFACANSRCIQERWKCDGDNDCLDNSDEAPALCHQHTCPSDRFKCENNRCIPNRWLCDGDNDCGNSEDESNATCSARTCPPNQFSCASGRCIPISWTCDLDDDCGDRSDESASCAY

B1: MegaRAP1 d3 T213S revertant (designed binder)
chain: LDRLRRVSHQGYSTEAKFEEPRVIDLWDLAQSANLTDKELEAFREELKYFKAKIEAHNHYQKQLEIAHEELRHAESVGDGERVSRSREKHALLEGRTKELGYTVKKHLQDLSGRISRAR
For B1, the “% max binding” value (LRP1 CR3-5) was 2%.

B2: MegaRAP1 d3 E270K revertant (designed binder)
chain: LDRLRRVSHQGYTTEAKFEEPRVIDLWDLAQSANLTDKELEAFREELKYFKAKIEAHNHYQKQLEIAHEKLRHAESVGDGERVSRSREKHALLEGRTKELGYTVKKHLQDLSGRISRAR
For B2, the “% max binding” value (LRP1 CR3-5) was 85%.

B3: MegaRAP1 d3 K251E, E270K double revertant (designed binder)
chain: LDRLRRVSHQGYTTEAKFEEPRVIDLWDLAQSANLTDKELEAFREELKYFEAKIEAHNHYQKQLEIAHEKLRHAESVGDGERVSRSREKHALLEGRTKELGYTVKKHLQDLSGRISRAR
For B3, the “% max binding” value (LRP1 CR3-5) was 16%.

B4: MegaRAP1 d3 K217E revertant (designed binder)
chain: LDRLRRVSHQGYTTEAEFEEPRVIDLWDLAQSANLTDKELEAFREELKYFKAKIEAHNHYQKQLEIAHEELRHAESVGDGERVSRSREKHALLEGRTKELGYTVKKHLQDLSGRISRAR
With B4 the “% max binding” value (LRP1 CR3-5) was 2%.

B5: MegaRAP1 d3 A256K, E270K double revertant (designed binder)
chain: LDRLRRVSHQGYTTEAKFEEPRVIDLWDLAQSANLTDKELEAFREELKYFKAKIEKHNHYQKQLEIAHEKLRHAESVGDGERVSRSREKHALLEGRTKELGYTVKKHLQDLSGRISRAR
For B5, the “% max binding” value (LRP1 CR3-5) was 93%.

B6: LRP2 CR89 Y1042W R1088D (receptor)
chain: PTEQCGLFSFPCKNGRCVPNYWLCDGVDDCHDNSDEQLCGTLNNTCSSSAFTCGHGECIPAHWRCDKDNDCVDGSDEHNCPTHA
notes: also called WVWD; not shown: N-terminal hexahistidine and S-peptide tag stretch of pET30(+)a
B6: no binding (tested: 100 nM) (MegaRAP1 d3 [1]).

B7: RAP d3 K270E (ligand, human, UniProt P30533 235-353, looked up)
chain: LDRLRRVSHQGYSTEAEFEEPRVIDLWDLAQSANLTDKELEAFREELKHFEAKIEKHNHYQKQLEIAHEELRHAESVGDGERVSRSREKHALLEGRTKELGYTVKKHLQDLSGRISRAR
notes: range 201-319 (mature RAP numbering); Forward mutant of m1; same construct; also called RAP K270E; not shown: N-terminal hexahistidine and S-peptide tags of pET30(+)a
With B7 the “% max binding” value (LRP1 CR3-5) was 4%.

B8: LRP2 CR89 Y1042W V1047D (receptor)
chain: PTEQCGLFSFPCKNGRCVPNYWLCDGDDDCHDNSDEQLCGTLNNTCSSSAFTCGHGECIPAHWRCDKRNDCVDGSDEHNCPTHA
notes: also called WDWR; not shown: N-terminal hexahistidine and S-peptide tag stretch of pET30(+)a
B8: no binding (tested: 100 nM) (MegaRAP1 d3 [1]).

B9: RAP d3 H249Y (ligand, human, UniProt P30533 235-353, looked up)
chain: LDRLRRVSHQGYSTEAEFEEPRVIDLWDLAQSANLTDKELEAFREELKYFEAKIEKHNHYQKQLEIAHEKLRHAESVGDGERVSRSREKHALLEGRTKELGYTVKKHLQDLSGRISRAR
notes: range 201-319 (mature RAP numbering); Forward mutant of m1; same construct; also called RAP H249Y; not shown: N-terminal hexahistidine and S-peptide tags of pET30(+)a
In the case of B9, the “% max binding” value (LRP1 CR3-5) is reported as 90%.

B10: RAP d3 E217K (ligand, human, UniProt P30533 235-353, looked up)
chain: LDRLRRVSHQGYSTEAKFEEPRVIDLWDLAQSANLTDKELEAFREELKHFEAKIEKHNHYQKQLEIAHEKLRHAESVGDGERVSRSREKHALLEGRTKELGYTVKKHLQDLSGRISRAR
notes: range 201-319 (mature RAP numbering); Forward mutant of m1; same construct; also called RAP E217K; not shown: N-terminal hexahistidine and S-peptide tags of pET30(+)a
In the case of B10, the “% max binding” value (LRP1 CR3-5) is reported as 91%.

B11: LRP2 CR3536 (receptor)
chain: not shown
notes: domain: CR3536; the primers (LRP2CR35F, LRP2CR36R) fit CR3536; not shown: N-terminal hexahistidine and S-peptide tags of pET30(+)a
B11: no binding (tested: 80 nM) (MegaRAP1 d3 [2]).

B12: LRP2 CR3031 (receptor)
chain: not shown
notes: domain: CR3031; not shown: N-terminal hexahistidine and S-peptide tags of pET30(+)a
B12: no binding (tested: 80 nM) [3]; no binding (tested: 80 nM) (MegaRAP1 d3 [2]).

B13: RAP d3 K256A, K270E (ligand, human, UniProt P30533 235-353, looked up)
chain: LDRLRRVSHQGYSTEAEFEEPRVIDLWDLAQSANLTDKELEAFREELKHFEAKIEAHNHYQKQLEIAHEELRHAESVGDGERVSRSREKHALLEGRTKELGYTVKKHLQDLSGRISRAR
notes: range 201-319 (mature RAP numbering); Forward mutant of m1; same construct; also called RAP K256A, K270E; not shown: N-terminal hexahistidine and S-peptide tags of pET30(+)a
In the case of B13, the “% max binding” value (LRP1 CR3-5) is reported as 2%.

B14: RAP d3 E251K, K256A, K270E (ligand, human, UniProt P30533 235-353, looked up)
chain: LDRLRRVSHQGYSTEAEFEEPRVIDLWDLAQSANLTDKELEAFREELKHFKAKIEAHNHYQKQLEIAHEELRHAESVGDGERVSRSREKHALLEGRTKELGYTVKKHLQDLSGRISRAR
notes: range 201-319 (mature RAP numbering); Forward mutant of m1; same construct; also called RAP E251K, K256A, K270E; not shown: N-terminal hexahistidine and S-peptide tags of pET30(+)a
For B14, the “% max binding” value (LRP1 CR3-5) was 2%.

B15: RAP d3 E251K, K270E (ligand, human, UniProt P30533 235-353, looked up)
chain: LDRLRRVSHQGYSTEAEFEEPRVIDLWDLAQSANLTDKELEAFREELKHFKAKIEKHNHYQKQLEIAHEELRHAESVGDGERVSRSREKHALLEGRTKELGYTVKKHLQDLSGRISRAR
notes: range 201-319 (mature RAP numbering); Forward mutant of m1; same construct; also called RAP E251K, K270E; not shown: N-terminal hexahistidine and S-peptide tags of pET30(+)a
For B15, the “% max binding” value (LRP1 CR3-5) was 4%.

B16: LRP2 CR2728 (receptor, human, UniProt P98164 3552-3631, looked up)
chain: FCRLGQFQCSDGNCTSPQTLCNAHQNCPDGSDEDRLLCENHHCDSNEWQCANKRCIPESWQCDTFNDCEDNSDEDSSHCA
notes: domain: CR2728; not shown: N-terminal hexahistidine and S-peptide tags of pET30(+)a
B16: no binding (tested: 80 nM) [3]; no binding (tested: 80 nM) (MegaRAP1 d3 [2]).

With B17 the “% max binding” value (LRP1 CR3-5) was 4%.

B18: RAP d3 E251K (ligand, human, UniProt P30533 235-353, looked up)
chain: LDRLRRVSHQGYSTEAEFEEPRVIDLWDLAQSANLTDKELEAFREELKHFKAKIEKHNHYQKQLEIAHEKLRHAESVGDGERVSRSREKHALLEGRTKELGYTVKKHLQDLSGRISRAR
notes: range 201-319 (mature RAP numbering); Forward mutant of m1; same construct; also called RAP E251K; not shown: N-terminal hexahistidine and S-peptide tags of pET30(+)a
With B18 the “% max binding” value (LRP1 CR3-5) was 100%.
